Results from paper PMC8632965.

Biological target: T1, extracellular portion of CD98 (212-630 of CD98hc)
T1 chain: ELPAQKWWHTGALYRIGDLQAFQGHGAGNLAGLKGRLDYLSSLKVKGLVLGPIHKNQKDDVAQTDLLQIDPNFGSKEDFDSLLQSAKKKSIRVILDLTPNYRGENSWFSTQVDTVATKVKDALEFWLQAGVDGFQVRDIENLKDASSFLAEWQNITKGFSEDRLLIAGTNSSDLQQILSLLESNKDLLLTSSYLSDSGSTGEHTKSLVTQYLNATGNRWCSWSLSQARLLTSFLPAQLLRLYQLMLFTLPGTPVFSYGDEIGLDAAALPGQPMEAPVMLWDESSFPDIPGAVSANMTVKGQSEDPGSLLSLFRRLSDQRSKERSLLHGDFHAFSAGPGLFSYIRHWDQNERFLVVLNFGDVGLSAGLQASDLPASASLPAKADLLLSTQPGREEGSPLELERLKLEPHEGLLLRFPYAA
Experiment: SPR
Settings: chain shown with the change;; parent: est. 24; read off a plot

B1: domain 1 of CD147, P35613-2 K63A (protein)
chain: AAGTVFTTVEDLGSKILLTCSLNDSATEVTGHRWLKGGVVLAEDALPGQKTEFKVDSDDQWGEYSCVFLPEPMGTANIQLHGPPRVKAVKSSEHINEGETAMLVCKSESVPPVTDWAWYKITDSEDKALMNGSESRFFVSSSQGRSELHIENLNMEADPGQYRCNGTSSKGSDQAIITLRVRSH
Q: B1 was tested. Which response did it give?
A: 3.5 RU
